Drawing on the Immune Epitope Database (IEDB), this text covers Kd and IC50 for 19 sequences.

A word on the Kd: it is a measure of binding affinity in units of concentration. One may read the IC50 as the concentration that gives 50% inhibition.

The target in experiment [1] is HLA-B*57:01. Kind of experiment: IEDB peptide-MHC binding, purified MHC/competitive/radioactivity; filed as Kd, often an IC50 or EC50 that approximates it; ≥ and ≤ were set here for values at or beyond the usual limits of such assays.
Another experiment addresses HLA-A*02:06. The experiment is described as above.
The next experiment has as its target HLA-A*02:17. The experiment is described as above.
In experiment [2] the target is HLA-B*51:01. Described as above. Particulars: source organism: Dengue virus 4 Philippines/H241/1956.
A further experiment addresses HLA-B*53:01. Described as above.
In experiment [3] the target is HLA-A*02:01. Described as above.
A further experiment addresses HLA-B*35:01. The experiment is described as above.
A further experiment has as its target HLA-B*46:01. Kind of experiment: IEDB peptide-MHC binding, purified MHC/competitive/fluorescence; filed as Kd, often an IC50 or EC50 that approximates it; ≥ and ≤ were set here for values at or beyond the usual limits of such assays.
The target of the next experiment is HLA-B*18:01. Described as above.
The next experiment has as its target HLA-B*15:17. The experiment is described as above.
Experiment [4] concerns the target HLA-B*51:01. The experiment is described as above.
Experiment [5] deals with HLA-B*15:01. The experiment is described as above. Particulars: source organism: Zaire ebolavirus.
The target of a further experiment is HLA-A*69:01. The description is as above.
Experiment [6] addresses HLA-B*57:01. The experiment is described as above.
In a further experiment the target is HLA-B*27:03. Described as above.
A further experiment deals with HLA-B*39:01. The experiment is described as above.
A further experiment deals with HLA-A*26:01. Described as above.
A further experiment has as its target HLA-A*24:03. Description: IEDB peptide-MHC binding, purified MHC/direct/fluorescence; filed as Kd, often an IC50 or EC50 that approximates it; ≥ and ≤ were set here for values at or beyond the usual limits of such assays.
In another experiment the target is HLA-A*03:01. Described as above.
The next experiment addresses HLA-A*29:02. The description is as above. The note with it: source organism: Zaire ebolavirus.
In experiment [7] the target is HLA-A*02:01. The experiment is described as above.
The next experiment deals with HLA-B*58:01. Kind of experiment: IEDB peptide-MHC binding, purified MHC/competitive/radioactivity; filed as Kd, often an IC50 or EC50 that approximates it; ≥ and ≤ were set here for values at or beyond the usual limits of such assays.
The next experiment addresses HLA-A*02:19. Description: IEDB peptide-MHC binding, purified MHC/direct/fluorescence; filed as Kd, often an IC50 or EC50 that approximates it; ≥ and ≤ were set here for values at or beyond the usual limits of such assays. The note with it: source organism: Araucaria virus.
The target of experiment [8] is HLA-A*68:02. Described as above. Particulars: source organism: Araucaria virus.
Experiment [9] addresses HLA-A*02:03. The description is as above. Particulars: source organism: Araucaria virus.
The next experiment has as its target HLA-A*02:12. The experiment is described as above.
A further experiment concerns the target HLA-A*23:01. Kind of experiment: IEDB peptide-MHC binding, purified MHC/competitive/radioactivity; filed as Kd, often an IC50 or EC50 that approximates it; ≥ and ≤ were set here for values at or beyond the usual limits of such assays. Particulars: source organism: Dengue virus 1 Brazil/97-11/1997.
Experiment [10] has as its target HLA-A*24:02. The experiment is described as above. Particulars: source organism: Dengue virus 1 Brazil/97-11/1997.
Experiment [11] has as its target HLA-B*15:01. The description is as above. Particulars: source organism: Dengue virus 1 Brazil/97-11/1997.
In the next experiment the target is HLA-A*32:01. The experiment is described as above.
The target in experiment [12] is HLA-A*68:02. Described as above. The note with it: source organism: Dengue virus 1 Brazil/97-11/1997.
For a further experiment, the target named is HLA-B*08:01. The experiment is described as above. Particulars: source organism: Dengue virus 1 Brazil/97-11/1997.
The target of experiment [13] is HLA-A*02:03. Described as above. The note with it: source organism: Dengue virus 1 Brazil/97-11/1997.
For the next experiment, the target named is HLA-A*01:01. Description: IEDB peptide-MHC binding, purified MHC/direct/fluorescence; filed as Kd, often an IC50 or EC50 that approximates it; ≥ and ≤ were set here for values at or beyond the usual limits of such assays. The note with it: source organism: Reston ebolavirus - Reston.
For experiment [14], the target named is HLA-B*15:01. Kind of experiment: IEDB peptide-MHC binding, purified MHC/competitive/fluorescence; ≥ and ≤ were set here for values at or beyond the usual limits of such assays.
In another experiment the target is HLA-A*11:01. The description is as above. The note with it: source organism: Zaire ebolavirus.
The target of experiment [15] is HLA-A*02:01. The description is as above. Particulars: source organism: Vaccinia virus.
In experiment [16] the target is HLA-A*24:02. The experiment is described as above. The note with it: source organism: Zaire ebolavirus.
Setting [17] is: source organism: Dengue virus 4 Dominica/814669/1981.
The mark [18] stands for this setting: source organism: Dengue virus 4 Philippines/H241/1956.
Where [19] appears, read: source organism: Zaire ebolavirus.
Setting [20] is: source organism: Hantavirus HPR/02-73.
[21] abbreviates: source organism: Araucaria virus.
Setting [22] is: source organism: Dengue virus 3 Singapore/8120/1995.
[23] abbreviates: source organism: Dengue virus 1 Singapore/S275/1990.
Setting [24] is: source organism: Dengue virus 1 Brazil/97-11/1997.
Setting [25] is: source organism: Dengue virus 3 Martinique/1243/1999.
The mark [26] stands for this setting: source organism: Dengue virus 2 Jamaica/1409/1983.

Some results are limits rather than exact numbers.

On to GTSLLFLNDM, for which, in the experiment with HLA-B*57:01 [1] (setting [17]), the Kd was no less than 22100 nM.
Take FSMGLLCLTL: the Kd is 8.49 nM with HLA-A*02:06 (setting [18]); 84 nM in the experiment with HLA-A*02:17 (setting [18]); no less than 69.6 µM with HLA-B*51:01 [2]; 333 nM in the experiment with HLA-B*53:01 (setting [18]); 8990 nM with HLA-A*02:01 [3] (setting [18]); 3070 nM with HLA-B*35:01 (setting [18]).
Consider VLSDLCNFL, for which the Kd with HLA-B*46:01 (setting [19]), with HLA-B*18:01 (setting [19]), in the experiment with HLA-B*15:17 (setting [19]), with HLA-B*51:01 [4] (setting [19]), in the experiment with HLA-B*15:01 [5] and in the experiment with HLA-A*69:01 (setting [19]) was no less than 20 µM throughout. Moreover, the Kd in the experiment with HLA-B*57:01 [6] (setting [19]), with HLA-B*27:03 (setting [19]), in the experiment with HLA-B*39:01 (setting [19]), with HLA-A*26:01 (setting [19]), with HLA-A*24:03 (setting [19]) and with HLA-A*03:01 (setting [19]) was no less than 20 µM in each case. For the same sequence, the Kd in the experiment with HLA-A*29:02 is no less than 20 µM; with HLA-A*02:01 [7] (source organism: Ebola virus - Gabon (1994-1997)) it was 5 nM.
In the case of PSSVAARGYI, the Kd in the experiment with HLA-B*57:01 [1] (setting [18]) stood at 16400 nM; with HLA-B*58:01 (setting [18]), 512 nM.
For GFAIPIILK, the Kd with HLA-B*46:01 (setting [20]), with HLA-B*18:01 (setting [20]), with HLA-B*15:17 (setting [20]), in the experiment with HLA-B*51:01 [4] (setting [20]), with HLA-A*69:01 (setting [20]) and with HLA-B*57:01 [6] (setting [20]) was no less than 20 µM in each case. The Kd is no less than 20 µM with HLA-B*27:03 (setting [20]); no less than 20 µM in the experiment with HLA-B*39:01 (setting [20]); no less than 20 µM with HLA-A*26:01 (setting [20]); no less than 20 µM with HLA-A*02:19; no less than 20 µM with HLA-A*24:03 (setting [21]); 6 µM with HLA-A*03:01 (source organism: Juquitiba virus). The Kd in the experiment with HLA-A*68:02 [8], with HLA-A*02:03 [9] and with HLA-A*02:12 (setting [21]) was no less than 20 µM throughout.
With HSSTWHYDDE, the Kd with HLA-B*57:01 [1] (setting [22]) amounted to 6580 nM; in the experiment with HLA-B*58:01 (setting [22]), 866 nM.
As for MLMTGTLAVF, the Kd with HLA-A*23:01 is 55 nM; with HLA-A*02:17 (setting [23]), 32.3 nM; with HLA-A*24:02 [10], 296 nM; with HLA-B*15:01 [11] it was 1.24 nM; in the experiment with HLA-A*02:01 [3] (setting [23]), 75.1 nM; in the experiment with HLA-B*35:01 (setting [24]), 342 nM.
As to ATGPITTLW, the Kd in the experiment with HLA-B*57:01 [1] (setting [25]) stood at 12.1 nM; in the experiment with HLA-B*58:01 (setting [25]) it was 4.89 nM; in the experiment with HLA-A*32:01 (setting [25]), 221 nM.
For MKITAEWLW, the Kd is 43.3 nM with HLA-B*57:01 [1] (setting [26]), 5.43 nM in the experiment with HLA-B*58:01 (setting [26]) and 1090 nM with HLA-B*53:01 (setting [26]).
As for MLMTGTLAV, the Kd was found to be 9.69 nM with HLA-A*02:06 (setting [24]); 753 nM with HLA-A*02:17 (setting [23]); 9.71 nM with HLA-A*68:02 [12]; 22.5 nM in the experiment with HLA-B*08:01; 0.47 nM with HLA-A*02:03 [13]; 502 nM with HLA-A*32:01 (setting [24]). Also, the Kd with HLA-A*02:01 [3] (setting [23]) is 19.7 nM.
On to MVAKYDLLV, for which the Kd with HLA-B*46:01 (setting [19]), in the experiment with HLA-B*18:01 (setting [19]), with HLA-B*51:01 [4] (setting [19]), with HLA-B*57:01 [6] (setting [19]), with HLA-B*27:03 (setting [19]) and with HLA-B*39:01 (setting [19]) was no less than 20 µM each time. The equilibrium dissociation constant (Kd) was no less than 20 µM with HLA-A*26:01 (setting [19]); no less than 20 µM with HLA-A*03:01 (setting [19]); no less than 20 µM with HLA-A*02:12 (setting [19]); no less than 20 µM with HLA-A*01:01; 14.1 nM with HLA-A*02:01 [7] (source organism: Reston ebolavirus - Reston).
In the case of SQKGQHIEG, the figures for the IC50 with HLA-B*15:01 [14] (setting [19]) and in the experiment with HLA-A*11:01 were 46.5 µM and no less than 186 µM, respectively.
For the sequence KTKLNDWDF, the Kd with HLA-B*57:01 [1] (setting [25]) was 50.7 nM.
As for GSSIGQMFET, the Kd with HLA-B*57:01 [1] (setting [26]) is 1080 nM; in the experiment with HLA-B*58:01 (setting [26]) it was 1510 nM.
As for PMMIQTRAA, the IC50 in the experiment with HLA-B*15:01 [14] (source organism: Vaccinia virus) was no less than 298 µM; in the experiment with HLA-A*02:01 [15], 18.2 µM.
As for VSAGESSIL, in the experiment with HLA-B*15:01 [14] (source organism: Vaccinia virus Copenhagen), the IC50 is no less than 87.4 µM.
As to TSSQQKADW, the values for the Kd in the experiment with HLA-B*57:01 [1] (setting [26]) and with HLA-B*58:01 (setting [26]) were 29.1 nM and 186 nM, respectively.
Consider AFHKEGAFF, for which the figures for the IC50 with HLA-A*24:02 [16] and with HLA-B*15:01 [14] (setting [19]) were 19.9 nM and 1.88 µM, respectively.
GSSIGKMFES: the figures for the Kd with HLA-B*57:01 [1] (setting [17]) and in the experiment with HLA-B*58:01 (setting [17]) were 1830 nM and 251 nM, respectively.
